The values below come from the supplement of paper PMC11780869.

The subject of the data set is Bacillus subtilis. As to the kind of experiment: cleaved RNA product abundance (RNA/gDNA barcode ratio) relative to median wild-type variant (ratio to wild type); higher = more accumulation of the downstream cleavage product. To be noted: experiment (reporter, strain, medium): exp 8a: truncated aprE reporter, strain BJT201 with 2% xylose (RNase J1 expressed); cleavage site: glnRA (positions -5 to +31 mutated). Put shortly:
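B. subtilis strains with chromosomally integrated reporter mRNAs (truncated aprE or tetM) holding barcoded, mutagenized RNase Y cleavage-site windows grew in LB at 37°C from OD600 0.0003 to 0.3. Cleaved product abundance is each construct's RNA:gDNA barcode ratio, scaled to the median construct with the unmutated site. It came from sequencing barcodes of gel-selected, reverse-transcribed cleaved RNA and of genomic DNA.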
As to “CGACATGTCCCGCTTCTTTCATTAATCCGTTAGCATCTGTTTTGATATATACATTTACCTTTTAAGAGGAGGAAT”, the “cleaved RNA product abundance” value amounted to 0.491.
With “CGACATGTCCCGCTTCTTTCATTAATCCGTTAGCATCTGTTTTGCTATATACATATACCTTTTAAGAGGAGGAAT”, the “cleaved RNA product abundance” value worked out at 0.727.
Turning to “CGACATGTCCCGCTTCTTTCATTAATCCGTTAGCATCTGTTTTGCTATATACATTTAACTTTTAAGAGGAGGAAT”, the “cleaved RNA product abundance” value came to 0.999.
As to “CGACATGTCCCGCTTCTTTCATTAATCCGTTAGCATCTGTTTTGCTATATACATTTACATTTTAAGAGGAGGAAT”, the “cleaved RNA product abundance” value turned out to be 1.1.
As for “CGACATGTCCCGCTTCTTTCATTAATCCGTTAGCATCTGTTTTGCTATATACATTTACCTTTTAAGAGGAGGAAT”, the “cleaved RNA product abundance” value turned out to be 0.769.
Next, “CGACATGTCCCGCTTCTTTCATTAATCCGTTAGCATCTGTTTTGCTATATACATTTACGTTTTAAGAGGAGGAAT”: 0.589.
With “CGACATGTCCCGCTTCTTTCATTAATCCGTTAGCATCTGTTTTGCTATATACCTTTACCTTTTAAGAGGAGGAAT”, the “cleaved RNA product abundance” value stood at 0.152.
As for “CGACATGTCCCGCTTCTTTCATTAATCCGTTAGCATCTGTTTTGCTATATAGATTTACCTTTTAAGAGGAGGAAT”, the figure is 0.899; as for “CGACATGTCCCGCTTCTTTCATTAATCCGTTAGCATCTGTTTTGCTATATTCATTTACCTTTTAAGAGGAGGAAT”, 0.31.
Next, “CGACATGTCCCGCTTCTTTCATTAATCCGTTAGCATCTGTTTTTCTATATACATTTACCTTTTAAGAGGAGGAAT”: 0.273.
Turning to “CGACATGTCCCGCTTCTTTCATTAATCCGTTAGCATCTTTTTTGCTATATACATTTACCTTTTAAGAGGAGGAAT”, the “cleaved RNA product abundance” value was 0.995.
Turning to “CGACATGTCCCGCTTCTTTCATTAATCCGTTAGCCAATGTTTTGCTATATACATTTACCTTTTAAGAGGAGGAAT”, the “cleaved RNA product abundance” value came out at 0.576.
As for “CGACATGTCCCGCTTCTTTCATTAATCCGTTAGCCACTATTTTGCTATATACATTTACCTTTTAAGAGGAGGAAT”, the figure is 0.358; as for “CGACATGTCCCGCTTCTTTCATTAATCCGTTAGCCACTGTATTGCTATATACATTTACCTTTTAAGAGGAGGAAT”, 0.376; as for “CGACATGTCCCGCTTCTTTCATTAATCCGTTAGCCACTGTTTTGCTATAAACATTTACCTTTTAAGAGGAGGAAT”, 0.219.
As for “CGACATGTCCCGCTTCTTTCATTAATCCGTTAGCCACTGTTTTGCTATATACAGTTACCTTTTAAGAGGAGGAAT”, the figure is 0.244; as for “CGACATGTCCCGCTTCTTTCATTAATCCGTTAGCCACTGTTTTGCTATATACATTTACCTTTTAAGAGGAGGAAT”, 0.478; as for “CGACATGTCCCGCTTCTTTCATTAATCCGTTAGCCACTGTTTTGCTATATACATTTACTTTTTAAGAGGAGGAAT”, 0.98.
Regarding “CGACATGTCCCGCTTCTTTCATTAATCCGTTAGCCACTGTTTTGTTATATACATTTACCTTTTAAGAGGAGGAAT”, the “cleaved RNA product abundance” value was 0.247.
Next, “CGACATGTCCCGCTTCTTTCATTAATCCGTTAGCCAGTGTTTTGCTATATACATTTACCTTTTAAGAGGAGGAAT”: 0.333; “CGACATGTCCCGCTTCTTTCATTAATCCGTTAGCGACAGTTTTGCTATATACATTTACCTTTTAAGAGGAGGAAT”: 0.233.
With “CGACATGTCCCGCTTCTTTCATTAATCCGTTAGCGACTGTTTAGCTATATACATTTACCTTTTAAGAGGAGGAAT”, the “cleaved RNA product abundance” value is 0.681.
In the case of “CGACATGTCCCGCTTCTTTCATTAATCCGTTAGCGACTGTTTTGATATATACATTTACCTTTTAAGAGGAGGAAT”, the “cleaved RNA product abundance” value came to 0.24.
Regarding “CGACATGTCCCGCTTCTTTCATTAATCCGTTAGCGACTGTTTTGCTATATACATTGACCTTTTAAGAGGAGGAAT”, the “cleaved RNA product abundance” value was 0.274.
For the sequence “CGACATGTCCCGCTTCTTTCATTAATCCGTTAGCGACTGTTTTGCTATATACATTTAACTTTTAAGAGGAGGAAT”, the “cleaved RNA product abundance” value came to 0.418.
With “CGACATGTCCCGCTTCTTTCATTAATCCGTTAGCGACTGTTTTGCTATATACATTTACCTTTTAAGAGGAGGAAT”, the “cleaved RNA product abundance” value amounted to 0.385.
As to “CGACATGTCCCGCTTCTTTCATTAATCCGTTAGCTACTGTTATGCTATATACATTTACCTTTTAAGAGGAGGAAT”, the “cleaved RNA product abundance” value is 0.786.
In the case of “CGACATGTCCCGCTTCTTTCATTAATCCGTTAGCTACTGTTTTGCAATATACATTTACCTTTTAAGAGGAGGAAT”, the “cleaved RNA product abundance” value amounted to 0.187.
For “CGACATGTCCCGCTTCTTTCATTAATCCGTTAGCTACTGTTTTGCTATATACATTTAACTTTTAAGAGGAGGAAT”, the “cleaved RNA product abundance” value was determined as 0.621.
As to “CGACATGTCCCGCTTCTTTCATTAATCCGTTAGCTACTGTTTTGCTATATACATTTACCTTTTAAGAGGAGGAAT”, the “cleaved RNA product abundance” value is 0.56.
Turning to “CGACATGTCCCGCTTCTTTCATTAATCCGTTAGCTACTGTTTTGCTATATACATTTACGTTTTAAGAGGAGGAAT”, the “cleaved RNA product abundance” value worked out at 0.818.
For the sequence “CGACATGTCCCGCTTCTTTCATTAATCCGTTAGCTACTGTTTTGCTATATACATTTATCTTTTAAGAGGAGGAAT”, the “cleaved RNA product abundance” value stood at 0.798.
On to “CGACATGTCCCGCTTCTTTCATTAATCCGTTAGCTACTGTTTTGCTATATATATTTACCTTTTAAGAGGAGGAAT”, for which the “cleaved RNA product abundance” value amounted to 0.617.
With “CGACATGTCCCGCTTCTTTCATTAATCCGTTAGCTACTGTTTTGCTATATGCATTTACCTTTTAAGAGGAGGAAT”, the “cleaved RNA product abundance” value is 0.368.
As for “CGACATGTCCCGCTTCTTTCATTAATCCGTTAGCTACTGTTTTGCTATATTCATTTACATTTTAAGAGGAGGAAT”, the “cleaved RNA product abundance” value worked out at 0.64.
Turning to “CGACATGTCCCGCTTCTTTCATTAATCCGTTAGCTATTGTTTTGCTATATACATTTACCTTTTAAGAGGAGGAAT”, the “cleaved RNA product abundance” value was 0.432.
“CGACATGTCCCGCTTCTTTCATTAATCCGTTAGCTGCTGTTTTGCTATATACATTTACCTTTTAAGAGGAGGAAT”: the “cleaved RNA product abundance” value came to 0.658.
As for “CGACATGTCCCGCTTCTTTCATTAATCCGTTAGGAAATGTTTTGCTATATACATTTACCTTTTAAGAGGAGGAAT”, the figure is 0.361.
As for “CGACATGTCCCGCTTCTTTCATTAATCCGTTAGGAACAGTTTTGCTATATACATTTACCTTTTAAGAGGAGGAAT”, the “cleaved RNA product abundance” value amounted to 0.434.
As for “CGACATGTCCCGCTTCTTTCATTAATCCGTTAGGAACTATTTTGCTATATACATTTACCTTTTAAGAGGAGGAAT”, the figure is 0.437.
Take “CGACATGTCCCGCTTCTTTCATTAATCCGTTAGGAACTGATTTGCTATATACATTTACCTTTTAAGAGGAGGAAT”: the “cleaved RNA product abundance” value was determined as 0.415.
“CGACATGTCCCGCTTCTTTCATTAATCCGTTAGGAACTGTCTTGCTATATACATTTACCTTTTAAGAGGAGGAAT”: the “cleaved RNA product abundance” value was determined as 0.138.
For the sequence “CGACATGTCCCGCTTCTTTCATTAATCCGTTAGGAACTGTTTAGCTATATACATTTACCTTTTAAGAGGAGGAAT”, the “cleaved RNA product abundance” value stood at 0.327.
Consider “CGACATGTCCCGCTTCTTTCATTAATCCGTTAGGAACTGTTTTGCAATATACATTTACCTTTTAAGAGGAGGAAT”, for which the “cleaved RNA product abundance” value is 0.342.
“CGACATGTCCCGCTTCTTTCATTAATCCGTTAGGAACTGTTTTGCGATATACATTTACCTTTTAAGAGGAGGAAT”: the “cleaved RNA product abundance” value was found to be 0.312.
As for “CGACATGTCCCGCTTCTTTCATTAATCCGTTAGGAACTGTTTTGCTATAAACATTTACCTTTTAAGAGGAGGAAT”, the figure is 0.289; as for “CGACATGTCCCGCTTCTTTCATTAATCCGTTAGGAACTGTTTTGCTATACACATTTACCTTTTAAGAGGAGGAAT”, 0.245; as for “CGACATGTCCCGCTTCTTTCATTAATCCGTTAGGAACTGTTTTGCTATATACATTTACCTTTTAAGAGGAGGAAT”, 0.331.
Take “CGACATGTCCCGCTTCTTTCATTAATCCGTTAGGAACTGTTTTGCTATATACATTTACTTTTTAAGAGGAGGAAT”: the “cleaved RNA product abundance” value turned out to be 0.247.
Turning to “CGACATGTCCCGCTTCTTTCATTAATCCGTTAGGAACTGTTTTGCTATATACATTTGCCTTTTAAGAGGAGGAAT”, the “cleaved RNA product abundance” value came to 0.376.
For the sequence “CGACATGTCCCGCTTCTTTCATTAATCCGTTAGGAACTGTTTTGCTATATAGATTTACCTTTTAAGAGGAGGAAT”, the “cleaved RNA product abundance” value came out at 0.191.
Consider “CGACATGTCCCGCTTCTTTCATTAATCCGTTAGGAACTGTTTTGCTATATATATTTACCTTTTAAGAGGAGGAAT”, for which the “cleaved RNA product abundance” value is 0.367.
“CGACATGTCCCGCTTCTTTCATTAATCCGTTAGGAACTGTTTTTCTATATACATTTACCTTTTAAGAGGAGGAAT”: the “cleaved RNA product abundance” value turned out to be 0.453.
As for “CGACATGTCCCGCTTCTTTCATTAATCCGTTAGGAACTTTTTTGCTATATACATTTACCTTTTAAGAGGAGGAAT”, the “cleaved RNA product abundance” value was 0.409.
Next, “CGACATGTCCCGCTTCTTTCATTAATCCGTTAGTAAATGTTTTGCTATATACATTTACCTTTTAAGAGGAGGAAT”: 0.205; “CGACATGTCCCGCTTCTTTCATTAATCCGTTAGTAACTGTCTTGCTATATACATTTACCTTTTAAGAGGAGGAAT”: 0.231; “CGACATGTCCCGCTTCTTTCATTAATCCGTTAGTAACTGTTGTGCTATATACATTTACCTTTTAAGAGGAGGAAT”: 0.358.
With “CGACATGTCCCGCTTCTTTCATTAATCCGTTAGTAACTGTTTAGCTATATACATTTACCTTTTAAGAGGAGGAAT”, the “cleaved RNA product abundance” value was determined as 0.463.
Next, “CGACATGTCCCGCTTCTTTCATTAATCCGTTAGTAACTGTTTTACTATATACATTTACCTTTTAAGAGGAGGAAT”: 1.04.
Turning to “CGACATGTCCCGCTTCTTTCATTAATCCGTTAGTAACTGTTTTCCTATATACATTTACCTTTTAAGAGGAGGAAT”, the “cleaved RNA product abundance” value came out at 0.44.
As to “CGACATGTCCCGCTTCTTTCATTAATCCGTTAGTAACTGTTTTGATATATACATTTACCTTTTAAGAGGAGGAAT”, the “cleaved RNA product abundance” value stood at 0.66.
